Data reported in the nanobody polyreactivity screen of Harvey et al. (2022).

Assay: yeast display, Sf9 membrane polyspecificity reagent, FACS + sequencing; frameworks hold sequencing errors
How it was run: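 Using colony PCR, genes from sorted yeast display clones were amplified, then sequenced on MiSeq at 2 × 250 and filtered by CDR length. The clones had been stained with 10% biotinylated, detergent-solubilized Sf9 membrane reagent for 1 hour at 4 °C and sorted by FACS into low and high (top ~1%) gates on anti-HA and streptavidin fluorescence. Polyreactivity labels come from the gate of origin.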

For “QVQLVESGGGLVQAGGSLRLSCAASGRTFYKYTMGWYRQAPGKERELVAAITTSGGGTYYADSVKGRFTISRDNAKNTVYIQMNSLKPEDTAVYYCAARYRELRTEYYYWGQGTQVTVSA”, the “polyreactivity (PSR sort gate)” value was “high polyreactivity”.

With “QDQLVESGGGLVQAGGSLRLICAASGSIFSKKAMGLYRQAPGKERELVAAISASGASTYYADSVKGRFTISRDNEKNTVYLQMNSLKPEDTSVYYCNADVSGVSSYGLSYEFYYWGQGTQVTVSS” the “polyreactivity (PSR sort gate)” value was “low polyreactivity”.

In the case of “QVHLVESGGGLVQAGGSLRLSCAASGSIFKPYTMRWYRQAPGTERELVAVITRRGGSTYYADSVKGRFTISRDNAKNTVYLQMNSLKPEDTAVYYCAAEYDYYGWWNDYWGQGTQVTVSS”, the “polyreactivity (PSR sort gate)” value was “high polyreactivity”.

With “QVQLVESGGGLVQAGGSLRLSCAASGNTIGSNAMGWYRQAPGKERELVATISKRGGSTYYADSVKGRFTISRDNAKNTVYLQMNSLKPEDTAVYYCATTSTRYWAFSSRPDYRDDYWGQGTQVTVSS” the “polyreactivity (PSR sort gate)” value was “high polyreactivity”.

In the case of “QVHLVESGGGLVQAGGSLRLSCADSGSTFTSYAMGWYRQAPGKERDLVAAINYSGGSTYYADSVKGRFTISRDNAKNTVYLQMNSLKPEDTAVYYCAADGYIRQYVTYYYWGKGTQVTVSS”, the “polyreactivity (PSR sort gate)” value was “low polyreactivity”.

With “QVQLVESGGGLVQAGGSLRLSCAASGFIFSPYVMGSYRQAPGKERELVAAISSIGGSTYYADSVKGRFTISRDNAKKTVYLQMNSLKPEDTAVYYCADSVYYYASRYDYWGQGTQVTVSS” the “polyreactivity (PSR sort gate)” value was “low polyreactivity”.

With “QVQLVESGGGLVQAGGSLRLSCAASGRTFGIYALGWYRQAPGKERELVAAITGRGGSTHYADSVKGRFTISRDNAKNTVYLQMNSLKPEDTAVYYCNAEGVYYDYKYGYYGYDYWGQGTQVTVSS” the “polyreactivity (PSR sort gate)” value was “low polyreactivity”.

For “QVQLVESGGGLVQAGGSLRLSCAASGSTFGRNAMGWYRQAPGKERELVAAISKTGGSTYYADSVKGRFTISRDTAKNTVYLQMNSLKPEDTAVYYCAARIRGFRTYYYWGQGTQVTVSS”, the “polyreactivity (PSR sort gate)” value was “high polyreactivity”.

For “QVQLVESGGGLVQAGGTLRLTCAASGRIFNSNDMRWYRQAPGKERELVASISPNTGTTYYADSVKGRFTISRDNAKNTVYLQMNSLKPEDTAVYYCAARGVYYQDGLVTGEAEYGYWGQGTQVTVSS”, the “polyreactivity (PSR sort gate)” value was “low polyreactivity”.

With “QVQLVESGGGLVQAGGSLRLSCAASGIIFQRNDMGWYRQAPGKERELVANIRDGGITYADSVKGRFTISRDNAKNTVYLQMNSLKPEDTAVYYCARDDTSPGFGDQSSNAAYYYWGQGTQVTVSS” the “polyreactivity (PSR sort gate)” value was “low polyreactivity”.

For “QVQLVESGGGLVQAGGSLRLSCAASGRIFGPYAMGWYRQAPGKERELVAAISGRGSSTYYADSVKGRFTISRDNAKNTVYLQMNSLKPEDTAVYYCAKYPTYSYDYWGQGTQVTVSS”, the “polyreactivity (PSR sort gate)” value was “high polyreactivity”.

For “QVQLVESGGGLVQAGGSLRLSCAPSGSTFYKYVMGWYRQAPGKERELVAAISQGGSSTYYADSVKGRFTISRDNAKYTVYVLMNSLKPEDTAVYYCAAQYWWWSRFEYDSWGQGTQVTVSS”, the “polyreactivity (PSR sort gate)” value was “low polyreactivity”.

In the case of “QVQLVESGGGLVQAGGSLRLICAASGSTFGPYAMGWYRQAPGKERELVADITVSDGSTYYADSVKGRFTISRDNAKNTVYLQMNSLNPEDTAVYYCAAEIYYSFGYWGQGTQVTVSS”, the “polyreactivity (PSR sort gate)” value was “low polyreactivity”.

In the case of “QGQLVESGGGLVQAGGSLRLSCAASGFTFVGNAMGWYRQAPGKERELVATITSGGNTKYADSVKGRFTISRDNAKYTVYLQKNSLKPEDTAVYYCAAAKYNYRRFNYWGQGTQVTVSS”, the “polyreactivity (PSR sort gate)” value was “low polyreactivity”.

With “QVQLVESGGGLVQAGGSLRLSCAASRRTFKSSAMGWYRPEPGKERELVAAISRSGGITYYADSVKGRFTISRDNAKNTVYLQMNSLKPEDTAVYYCAAVGYQYRHRRFYYWGQGTQVTVSS” the “polyreactivity (PSR sort gate)” value was “high polyreactivity”.

In the case of “QVQLVESGGGLVQAGGSLRLSCAASGNTFTYYAMGWYRQAPGKERELVAAINIDVASTYYADSVKGRFTISRDNAKNTVYLQMNSLKPEDTAVYYCAAEVGVYPVYWYDYWGQGTQVTVSS”, the “polyreactivity (PSR sort gate)” value was “low polyreactivity”.

For “QVQLVESGVGLVQAGGSLRLSCAASGSTLVSYAKGWYIQAPGKERELVASISSGDSTYADSVKGRFTISRDNAKNTVYLQMNSLKPEDTAVYYCNVGNEGSYGFPVTYEYWGQGTQVTVSS”, the “polyreactivity (PSR sort gate)” value was “low polyreactivity”.

In the case of “QVQLVDSGGGLVQAGGSLRLSCAASGSTFYGYTMGWYRQAPGKERELVAAITSSGGSTYYADTVKGRFTISRDNAKNTVYLQMNSLNPEDTAVYYCAARGYRHFYYWGQGTQVTVSS”, the “polyreactivity (PSR sort gate)” value was “high polyreactivity”.

With “QVQLVESGGGLVQAGGSLRLSCAASGSTFPYNTMGWYRQAHGKEREFVAAITGDGGTTYYADSVKGRFTISRDNAKNTVYLQMNSLKPEDTAVYYCAVPYPAEGYGGDYWGQGTQGTVSS” the “polyreactivity (PSR sort gate)” value was “low polyreactivity”.

For “QVQLVESGGGLVQAGGSLRISCAASGFIFRSYAMGWYRQAPGKERELVAAISRSGGSTYYADSVKGRFTISRDNAKNTVYLQMNSLKPEDTAVYYCATDGGRSTARGYGHWGQGTQVTVSS”, the “polyreactivity (PSR sort gate)” value was “high polyreactivity”.

In the case of “QDQLVESGGGLVQAGGSLRLSCAASGSIFVHYVMGWYRQAPGKERELVAAISSRGGGTFYADSVKGRFTISRDNAKNTVYLQMNSLKPEDTAVSYCARVPYFGSGAIRDYWGQGTQVTVSS”, the “polyreactivity (PSR sort gate)” value was “high polyreactivity”.

With “QVHLVESGGGLVQAGGSLRLSCAASGSIYLITAMGWYRQAPGKERELVAAISSRGTSTYYADSVKGRFTISRDNAKNTVYFQMNSLKAEDTAVYYCAARAIRANGYDYWGQCTQVTVSS” the “polyreactivity (PSR sort gate)” value was “high polyreactivity”.

For “QVQLVESGGGLVQAGGSLRLSCAASGRIFAYYAMGWYRQAPGKEREFLATITGRGGSTSYADSVKGRFTISRDNAKNTVYLQMNSLKPEDTAVYYCAKRVVVWYFGTGDYWVQGTQVTVSS”, the “polyreactivity (PSR sort gate)” value was “low polyreactivity”.

In the case of “QVQLVESGGRLVQAGGSLRLSCAASGRTFDFYAMGWYRQAPGKERELVAAISSRGGSTYYADSVKGRFTISRDNAKNTVYLQMNSLKPEDTAVYYCAKDLGYRGRYNYWGQGTQVTVSS”, the “polyreactivity (PSR sort gate)” value was “low polyreactivity”.

With “QVQLVESGGGLVQAGGSRRLSCAASGLTFANYVMGWYIQAPGKERELVAAISRSGGSTYYADSVKGRFTISRDNAKNTVYLQMNSLNPEDTAVYYCAAAALDPKGSRYDYWGQGTQVTVSS” the “polyreactivity (PSR sort gate)” value was “low polyreactivity”.

For “QVQLVESGGGLVQAGGSLRLSCAASGSIFVGNAMGWSRQAPGKERELVAAISLSGGSTYFADSVKGRFTISRDNAKNTVYLQMNSLKPDDTAVYYCAAQTKPASRVTYYWYYYWGQGTQVTVSS”, the “polyreactivity (PSR sort gate)” value was “low polyreactivity”.

With “QGQLVESCGGLVQAGGSLRLSCAASGSTFAAYTMGWYRQAPGQERELVAAIRFDGGRTYYADSVKGRFTSSRDNAKNTVYLPMNSLKPEDTAVYYCRAWQSYSYDYWGQGTQVTVSS” the “polyreactivity (PSR sort gate)” value was “high polyreactivity”.

For “QVQLVESGGGLVQAGGSLRLSCAASGSIFYFNGMGWYRQAPGKERELVAAITWGDGSTYYADSVKGRFTISRDNAKNTVYLQMNSLKREDNAVYYCAAVLLIFKYVPRYDYWGQGTQVTVSS”, the “polyreactivity (PSR sort gate)” value was “low polyreactivity”.

With “QVQLVESGGGLVQAGGSLRLSCAASGRTFGSNAMGWYRQAPGKERELVAAISRVGSTYYADSVNGRFTISRDNAMNTVYLQMNSLKPEDTAVYYCPYDYWGQGTQVTVSS” the “polyreactivity (PSR sort gate)” value was “low polyreactivity”.

For “QVQLVESGGGLVQAGGSLRLSCAASGSIIGTNVMGWYRQAPGKERELVASISYRDGTTYYADSVKGRFTISRDNAKNTLYLQMNSLKPEDTAVYYCAVANYYSYYWGQGTQVTVSS”, the “polyreactivity (PSR sort gate)” value was “low polyreactivity”.

With “QVQLVESGGGLVQAGGSLRLSCAASGGIFVYNMGWYRQAPGKERELVAAISVSGGSTYYADSVKGRFTISRDNAKNTVYLQMNSLKPEDTAVYYCAASRPPYRDDYWGQGSQVTVSS” the “polyreactivity (PSR sort gate)” value was “high polyreactivity”.

For “QVQLVESWGGLVQAGGSLRLSCAASGRIFFVNAMGWYRQAPGKERELVAAITSGGSTSYADSVKGRFTISRDNAKNTVFLQLNSLKAEDTAVYYCAAVFYRRFDYWGQGTQVTVSS”, the “polyreactivity (PSR sort gate)” value was “low polyreactivity”.

With “QVQLVESGGGLVQAGGSIRLSCAASGINFYGNAMGWYRQAPGKETELVAAISWSGSSTYYADSVKGRFTISRDNAKNTVYFQMLSLKPEDTAVYYCKKATSSVRYLIYYYWGQGTQVTVSS” the “polyreactivity (PSR sort gate)” value was “high polyreactivity”.

In the case of “QVQLVESGGGLVQAGGSLRLSCAASGSIFSKNTMGWYRQAPGKEREFVARISVRGGSTYYADSVKGRFTISRDNAKNTVYLQMNSLKPEDTAVYYCNAAHTVTQNSRNSDYWGQGTQVTVSS”, the “polyreactivity (PSR sort gate)” value was “high polyreactivity”.

With “QVQLVESGGGLVQAGGSLRLICAASGLTSGLNAMGWYRPAPGKERELVATIRTNGGSTYYADSVKGRFTISRDNAKNNVYLQMNSLKPEDTAVYYCAADDKGGFAVEYDYWGQGTQVTVSS” the “polyreactivity (PSR sort gate)” value was “low polyreactivity”.

With “QVQLVETGGGLVQAGGSLRLSCAASGRTFAGNAMGWYRQAPGKERELVAGISSGGSTNYADSVKGRFTISRDNAKNTVYLQMNSLNPEDTAVYYCAKRYFRKGYPLFHYAYGYWGQVTQVTVSS” the “polyreactivity (PSR sort gate)” value was “high polyreactivity”.

With “QVQLVDSGGGLVQAGGSLRLICAASGRTIDNYAMGWYRQAPGKERELVAVISRSGDRRYYPDSEKGRFTISRDNAKNTVYLPMKSLKPEDTAVYYCNAVYGRSIYDGLFYTYDYWGQCTQVTVSS” the “polyreactivity (PSR sort gate)” value was “high polyreactivity”.

In the case of “QVQLVESGGGLVQAGGSLRLSCAASGSTFYYYAMGWYRQAPGKERELVASIRSRDGSTRYADSVKGRFTISRDNAKNTVYLQMNSLKPEDTAVYYCAAVGYRRVDAGSSASRYDYWGQGTQVTVSS”, the “polyreactivity (PSR sort gate)” value was “high polyreactivity”.

With “QVQLVESGGGLVQAGGSLRLSCAASGRIFFTNAMGWYRQAPGKERELVATISSSDGSTYYADSVKGRFTISRDNAKNTVYLQMNSLNPEDTAVYYCAALYSFRGSRQYTYKYYYWGQGTQVTVSS” the “polyreactivity (PSR sort gate)” value was “high polyreactivity”.

For “QVQLVESGGGLVQAGGSLRLSCAASGFTFRYYAMGWYRQAPGKERELVATISRGGSTNYVDSVKGRFTISRDNAKNTVYLQMNRLKPEDPAVYSCNARYKGWWVSTDSSTDDYWGQGTQVTVSS”, the “polyreactivity (PSR sort gate)” value was “high polyreactivity”.

With “QVQHVESGGGLVQAGGSLRLSCAASGYNFPYNPMGWYRQATGKEREFVAASTSSGGSTYYADSVKGRFTISRDNAKNTVYLQMNSLKPEDTAVYYCARVPLHRYGYWGQGTQVNVSS” the “polyreactivity (PSR sort gate)” value was “high polyreactivity”.

With “QVQLVESGGGLVQAGGSLRLSCAASGRISGGYDMGWYRQAPGKERELVAAITNTGGITYYADSVKGRFTISRDNAKNTVYLQMNSLKPEDTAVYYCNAEYEISFYVLFDYWGQGTQVTVSS” the “polyreactivity (PSR sort gate)” value was “low polyreactivity”.

With “QVQLVESGGGLVQAGGSLRLSCAASGRTIIYNTMGWSRQAPGKEREFVAAINWSGGSTYYADSVKGCFTISRDNAKNTVYLQMNSLKPEDTAVYYCNAEAGYYRPLIYDYWGQGTQVTVSS” the “polyreactivity (PSR sort gate)” value was “low polyreactivity”.
